{
  "source": "patent US20130331552A1",
  "binders": {"B1": {"name": "AT10-004 (antibody, V domains shown)", "VH": "RASQSVSRYLA", "VL": "RASQSVSRYLA"}},
  "target": "recombinant influenza HA3-protein (from H3N2, Wyoming, March 2003, Sino Biological Inc.) (influenza H3N2, Wyoming, March 2003)",
  "assay": "SPR imaging (IBIS MX96), antibody captured on anti-human-IgG chip, HA3 injected at 1 µg/ml, global 1:1 fit",
  "data": [
    {"binder": "B1", "values": [
      {"measurement": "Kd", "value": 0.07, "unit": "nM"},
      {"measurement": "koff", "value": "1e-06", "unit": "s⁻¹"},
      {"measurement": "kon", "value": 14000, "unit": "M⁻¹ s⁻¹"}
    ]}
  ]
}
